# Assay results published in doi:10.1101/2022.12.13.520362 (bioRxiv, 2022).
# B1: his6-tagged WT scaffolding protein of bacteriophage P22 (gp8) (natural protein, UniProt P26748 1-303, looked up)
# chain: MEPTTEIQATEDLTLSGDHAAASADSLVVDNANDNAGQEEGFEIVLKDDETAPKQDPAKNAEFARRRIERKRQRELEQQMEAVKRGELPESLRVNPDLPPQPDINAYLSEEGLAKYDYDNSRALAAFNAANTEWLMKAQDARSNAVAEQGRKTQEFTQQSAQYVEAARKHYDAAEKLNIPDYQEKEDAFMQLVPPAVGADIMRLFPEKSAALMYHLGANPEKARQLLAMDGQSALIELTRLSERLTLKPRGKQISSAPPADQPITGDVSAANKDAIRKQMDAAASKGDVETYRKLKAKLKGIR
# B2: his6-tagged L245C scaffolding protein of bacteriophage P22 (natural protein, UniProt P26748 1-303, looked up)
# chain: MEPTTEIQATEDLTLSGDHAAASADSLVVDNANDNAGQEEGFEIVLKDDETAPKQDPAKNAEFARRRIERKRQRELEQQMEAVKRGELPESLRVNPDLPPQPDINAYLSEEGLAKYDYDNSRALAAFNAANTEWLMKAQDARSNAVAEQGRKTQEFTQQSAQYVEAARKHYDAAEKLNIPDYQEKEDAFMQLVPPAVGADIMRLFPEKSAALMYHLGANPEKARQLLAMDGQSALIELTRLSERCTLKPRGKQISSAPPADQPITGDVSAANKDAIRKQMDAAASKGDVETYRKLKAKLKGIR
# Experiments:
# [1] = molecular target: empty procapsid shells of bacteriophage P22 (WT coat protein) (bacteriophage P22, UniProt P26747 1-430); experiment: co-sedimentation
# [2] = molecular target: bacteriophage P22 coat protein monomers (WT) (bacteriophage P22, UniProt P26747 1-430); experiment: weak affinity chromatography
binder,measurement,setting,value
B1,binding result,[1],binds
same,binding result,[2],binds
B2,binding result,[1],binds
